Data as given in patent US20110142849A1 (IRM, published 2011).

Key:
[1] = biological target: T1, mouse Pcsk9 with C-terminal his6 tag (mouse, UniProt Q80W65 35-694, limits assumed); assay: not told in the legend
T1 construct: also called murine PCSK9

hFGFR4 = biological target: T2, hFGFR4 (human, UniProt P22455); assay: specificity ELISA on coated antigen (88 ng per well), antibody at 2 µg/mL, ABS650
T2 construct: panel antigen of the specificity ELISA
T2 sequence (antigen, looked up): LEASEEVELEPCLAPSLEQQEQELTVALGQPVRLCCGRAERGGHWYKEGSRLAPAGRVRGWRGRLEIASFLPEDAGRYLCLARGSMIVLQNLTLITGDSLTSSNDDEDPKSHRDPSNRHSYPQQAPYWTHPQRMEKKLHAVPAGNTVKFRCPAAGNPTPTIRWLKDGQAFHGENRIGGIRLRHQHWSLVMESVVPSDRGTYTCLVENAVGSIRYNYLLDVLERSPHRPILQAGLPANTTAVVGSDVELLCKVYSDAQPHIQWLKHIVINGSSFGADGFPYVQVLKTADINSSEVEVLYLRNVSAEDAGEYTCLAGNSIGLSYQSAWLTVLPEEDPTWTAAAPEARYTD
Experimental: For specificity ELISAs on purified human and mouse IgGs, a 384-well plate was coated with a panel of purified human or mouse antigens at 88 ng per well and incubated overnight at 4° C. The plate was blocked and washed as described above, then 22 μL of purified mouse or human anti-PCSK9 antibody diluted to 2 μg/mL in PBS was added to each well. The plate was incubated for 1 hr at 37° C. then washed with PBST. Anti-mouse Fc antibody (Jackson ImmunoResearch Labs #115-035-071) or anti-human kappa antibody (Sigma #A7164) conjugated to HRP was diluted 1:5000 in PBS (25 μL) and added to each well. The plate was incubated for 1 hr at room temperature, then washed and developed as described above.
In order to test whether the antigen specificity of the parental mouse antibody LFU720 was retained in the final Humaneered™ IgGs, LGT209, LGT210 and LGT211, binding of the antibodies to a panel of human and mouse antigens (as well as human PCSK9) was tested in an ELISA assay.

A685X = biological target: T3, A685X (human, UniProt Q8NBP7); assay: co-immunoprecipitation with 5P20, blot
T3 construct: C-terminal truncation mutant, expressed protein; also called C-term mutant A685X

H683X = biological target: T4, H683X (human, UniProt Q8NBP7); assay: co-immunoprecipitation with 5P20, blot
T4 construct: C-terminal truncation mutant, expressed protein; also called Pcsk9 C-term mutant H683X

S681X = biological target: T5, S681X (human, UniProt Q8NBP7); assay: co-immunoprecipitation with 5P20, blot
T5 construct: C-terminal truncation mutant, expressed protein; also called Pcsk9 C-term mutant S681X

R682X = biological target: T6, R682X (human, UniProt Q8NBP7); assay: co-immunoprecipitation with 5P20, blot
T6 construct: C-terminal truncation mutant, expressed protein; also called Pcsk9 C-term mutant R682X

[2] = biological target: T7, recombinant human Pcsk9 (aa 31-692) with C-terminal his6 tag (human, UniProt Q8NBP7 31-692); assay: SPR (Biacore S51), antibody captured by anti-mouse Fcγ, Pcsk9 in flow
T7 construct: In the TR-FRET assay it carried a fluorophore (hPcsk9-AF); also called hPCSK9; hPcsk9
Experimental: Binding studies of Pcsk9 to the LFU720 (2 μg/mL) were carried out by capturing the mouse antibody with a rabbit anti-mouse Fcγ antibody (Biacore #BR-1005-14) that was previously immobilized onto a Series S CM-5 Biacore sensor chip (certified) (Biacore #BR-1005-30). Covalent binding of the Fcγ capture antibody was done with the ‘Amine Coupling Kit’ (Biacore #BR-1000-50). The capture antibody (rabbit-anti-mouse) was attached to the EDCactivated dextran surface with a 50 μg/mL anti-Fcγ antibody solution in 10 mM sodium acetate, pH 5 (Biacore #BR-1003-51) at a flow rate of 10 μL/min. A range of concentrations of Pcsk9 from 0.5 μM to 7.8 nM (2 fold serial dilution) were flowed over the captured LFU720 chip in PBS plus 100 mM NaCl, 0.005% P20 (Biacore #BR-1000-54). The resulting sensorgrams were analyzed using the Biacore S51 Evaluation Software. Data from all concentrations was fitted globally to a 1:1 Langmuir model.

[3] = biological target: T7, recombinant human Pcsk9 (aa 31-692) …; assay: TR-FRET, disruption of hLDL-R-Eu and hPcsk9-AF
Experimental: The TR-FRET assay was performed in 384-well white, shallow plates (Perkin Elmer, 6008280). hPcsk9-AF (10.7 nM) was incubated with serial dilutions of unlabeled hPcsk9 protein, EGF-A peptide, or NVP-LFU720-AX-1 antibody for 30 minutes at room temperature in 15 μL of assay buffer (20 mM HEPES, pH 7.2, 150 mM NaCl, 1 mM CaCl₂, 0.1% v/v Tween 20, and 0.1% w/v BSA). This was followed by addition of 5 μL of hLDL-R-Eu (4 nM) in assay buffer to the hPcsk9 and NVP-LFU720-AX-1 preincubated complex, and incubation at room temperature for 90 minutes. The final concentrations of these labeled proteins were 8 nM of hPcsk9-AF and 1 nM of hLDL-R-Eu. The TR-FRET signal was measured with EnVision 2100 multilabel reader (Perkin Elmer) at 330 nm excitation and 665 nm emission. Data was converted to normalized values using the following formula: [(665 nm value×10,000)/(615 nm value)]. The percentage inhibition was calculated with the following formula: 100-[(normalized value of treated sample/averaged normalized value of untreated samples)×100]. The percentage inhibition dose response curves were plotted using Prism version 5 with the formula, Y=Bottom+(Top−Bottom)/(1+10̂((LogIC₅₀−X)*HillSlope)) (GraphPad Prism Software).
TR-FRET assay was used for determining if the anti-hPcsk9 antibody NVP-LFU720 could disrupt the interaction between hPcsk9-AF and hLDL-R-Eu labeled proteins. […]

T5 sequence (Q8NBP7 31-680 limits assumed): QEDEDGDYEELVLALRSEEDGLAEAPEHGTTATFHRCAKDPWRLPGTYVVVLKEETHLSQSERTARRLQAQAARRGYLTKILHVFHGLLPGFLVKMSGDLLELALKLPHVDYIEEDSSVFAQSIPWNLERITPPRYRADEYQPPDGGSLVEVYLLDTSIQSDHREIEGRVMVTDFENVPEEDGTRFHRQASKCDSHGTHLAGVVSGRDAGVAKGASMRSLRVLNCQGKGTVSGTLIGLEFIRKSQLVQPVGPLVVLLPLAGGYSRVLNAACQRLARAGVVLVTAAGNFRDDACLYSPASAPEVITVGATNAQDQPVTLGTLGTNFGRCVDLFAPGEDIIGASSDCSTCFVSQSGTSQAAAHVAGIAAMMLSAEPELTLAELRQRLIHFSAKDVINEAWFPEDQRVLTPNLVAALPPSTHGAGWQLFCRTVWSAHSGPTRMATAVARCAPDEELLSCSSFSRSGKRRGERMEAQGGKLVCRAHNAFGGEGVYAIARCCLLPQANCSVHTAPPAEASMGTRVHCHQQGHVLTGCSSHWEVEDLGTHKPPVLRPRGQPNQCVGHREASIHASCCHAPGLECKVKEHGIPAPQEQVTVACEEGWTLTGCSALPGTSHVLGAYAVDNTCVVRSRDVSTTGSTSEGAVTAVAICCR
T4 sequence (Q8NBP7 31-682 limits assumed): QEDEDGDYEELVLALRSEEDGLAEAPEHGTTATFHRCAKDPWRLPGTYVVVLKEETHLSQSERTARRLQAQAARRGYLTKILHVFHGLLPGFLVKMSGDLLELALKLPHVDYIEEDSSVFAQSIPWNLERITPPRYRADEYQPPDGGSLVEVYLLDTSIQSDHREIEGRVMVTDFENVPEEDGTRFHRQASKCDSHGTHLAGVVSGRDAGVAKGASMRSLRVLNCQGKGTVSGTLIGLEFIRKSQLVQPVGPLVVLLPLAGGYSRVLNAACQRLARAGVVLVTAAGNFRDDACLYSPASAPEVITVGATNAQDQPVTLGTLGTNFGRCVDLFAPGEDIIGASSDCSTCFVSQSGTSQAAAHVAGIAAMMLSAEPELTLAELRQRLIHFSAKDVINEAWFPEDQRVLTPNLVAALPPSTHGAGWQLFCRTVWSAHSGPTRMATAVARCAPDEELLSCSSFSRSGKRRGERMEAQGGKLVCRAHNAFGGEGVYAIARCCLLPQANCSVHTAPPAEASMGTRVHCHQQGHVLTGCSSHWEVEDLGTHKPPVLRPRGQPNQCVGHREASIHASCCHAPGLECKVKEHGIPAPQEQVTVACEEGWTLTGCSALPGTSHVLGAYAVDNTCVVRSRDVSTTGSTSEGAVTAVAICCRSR
T6 sequence (Q8NBP7 31-681 limits assumed): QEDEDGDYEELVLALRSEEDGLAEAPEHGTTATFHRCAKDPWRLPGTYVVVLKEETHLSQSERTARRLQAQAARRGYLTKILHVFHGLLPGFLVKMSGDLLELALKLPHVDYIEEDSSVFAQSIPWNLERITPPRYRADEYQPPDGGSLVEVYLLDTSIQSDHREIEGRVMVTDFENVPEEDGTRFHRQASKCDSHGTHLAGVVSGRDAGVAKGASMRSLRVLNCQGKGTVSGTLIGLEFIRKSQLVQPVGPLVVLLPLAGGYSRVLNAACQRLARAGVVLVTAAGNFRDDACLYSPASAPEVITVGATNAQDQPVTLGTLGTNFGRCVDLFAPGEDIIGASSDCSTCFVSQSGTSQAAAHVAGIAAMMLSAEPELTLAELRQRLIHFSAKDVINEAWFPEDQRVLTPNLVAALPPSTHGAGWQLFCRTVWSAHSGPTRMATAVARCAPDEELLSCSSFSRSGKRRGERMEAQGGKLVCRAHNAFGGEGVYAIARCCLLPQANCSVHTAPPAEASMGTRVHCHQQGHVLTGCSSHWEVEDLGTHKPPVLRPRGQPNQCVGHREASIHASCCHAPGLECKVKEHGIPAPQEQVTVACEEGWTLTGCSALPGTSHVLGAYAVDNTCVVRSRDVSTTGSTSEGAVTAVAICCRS
T1 sequence (Q80W65 other isoform, or with tags, fused parts or gaps limits assumed): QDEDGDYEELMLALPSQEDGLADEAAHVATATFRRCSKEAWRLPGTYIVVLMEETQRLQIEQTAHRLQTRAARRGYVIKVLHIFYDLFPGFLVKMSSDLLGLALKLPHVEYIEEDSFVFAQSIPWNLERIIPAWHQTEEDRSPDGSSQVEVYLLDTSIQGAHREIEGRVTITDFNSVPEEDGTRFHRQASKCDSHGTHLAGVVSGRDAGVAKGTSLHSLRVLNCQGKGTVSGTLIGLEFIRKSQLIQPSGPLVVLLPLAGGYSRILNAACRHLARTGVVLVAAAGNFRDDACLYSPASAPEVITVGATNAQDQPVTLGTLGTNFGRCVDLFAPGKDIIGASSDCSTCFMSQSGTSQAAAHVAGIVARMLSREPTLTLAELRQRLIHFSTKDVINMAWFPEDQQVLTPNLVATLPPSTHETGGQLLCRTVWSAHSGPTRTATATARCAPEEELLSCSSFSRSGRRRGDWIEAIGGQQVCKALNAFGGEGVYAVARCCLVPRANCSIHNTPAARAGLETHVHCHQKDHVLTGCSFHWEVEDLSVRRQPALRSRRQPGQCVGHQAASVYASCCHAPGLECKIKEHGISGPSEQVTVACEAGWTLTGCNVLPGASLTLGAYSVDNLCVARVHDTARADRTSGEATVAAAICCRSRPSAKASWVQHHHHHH
T3 sequence (Q8NBP7 31-684 limits assumed): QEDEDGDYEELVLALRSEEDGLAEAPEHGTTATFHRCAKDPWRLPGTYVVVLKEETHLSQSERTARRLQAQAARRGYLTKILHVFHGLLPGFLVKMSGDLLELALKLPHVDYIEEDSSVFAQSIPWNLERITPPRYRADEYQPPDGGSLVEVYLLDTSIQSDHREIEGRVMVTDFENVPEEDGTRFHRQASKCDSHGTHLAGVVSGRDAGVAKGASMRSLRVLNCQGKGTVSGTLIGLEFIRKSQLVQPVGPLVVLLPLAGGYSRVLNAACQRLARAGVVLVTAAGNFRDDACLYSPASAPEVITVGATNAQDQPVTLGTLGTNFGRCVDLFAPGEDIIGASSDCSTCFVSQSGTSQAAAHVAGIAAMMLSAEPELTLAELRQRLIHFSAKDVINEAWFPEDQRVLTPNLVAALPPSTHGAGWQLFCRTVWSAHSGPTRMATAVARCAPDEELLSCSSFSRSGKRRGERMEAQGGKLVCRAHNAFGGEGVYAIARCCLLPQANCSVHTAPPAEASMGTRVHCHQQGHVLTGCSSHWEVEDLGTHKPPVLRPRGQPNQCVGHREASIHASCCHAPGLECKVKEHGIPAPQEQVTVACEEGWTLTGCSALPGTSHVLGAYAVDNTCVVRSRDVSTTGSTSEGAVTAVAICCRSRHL

B1: NVP-LGT211 (antibody, human IgG1, V domains shown)
VH: QVQLVQSGAEVKKPGASVKVSCKASGYTFSTMYMSWVRQAPGQGLEWMGRIDPANEHTNYAQKFQGRVTMTRDTSISTAYMELSRLTSDDTAVYYCARSYYYYAMDYWGQGTLVTVSS
VL: QIVLTQSPATLSVSPGERATLSCRASQSVSYMHWYQQKPGQAPRLLIYGVFRRATGIPDRFSGSGSGTDFTLTIGRLEPEDFAVYYCLQWSSDPPTFGQGTKLEIKR
notes: Silent human IgG1 kappa; also called pSR74 (Vh) + pJG10 (Vk); pSR074 + pJG10
B1: no binding [1]; no binding (tested: 2 µg/mL) (hFGFR4).

B2: NVP-LFU720 (antibody, V domains shown)
VH: EVQLQQSGAELMKPGASVKLSCTASGFNIKDMYMSWVRQRPEQGLEWIGRIDPANGHTNYDPKFQAKATITTDTSSKTAYLHLSSLTSEDTAVYYCARSYYYYAMDYWGQGTSVTVSS
VL: QIVLTQSPAIMSASPGEKVTMTCSASSSVSYMHWYQQKPGSSPRLWIYLTFNLASGVPARFSGSGSGTSYSLSISSMEAEDAATYYCLQWSSDPPTFGSGTKLEIK
notes: Murine anti-human Pcsk9 IgG1-kappa monoclonal antibody from a hybridoma; also called 5P20; NVP-LFU720-AX-1
B2: no binding (A685X); no binding (H683X); no binding (S681X). The binding result (R682X) was “no binding”, the Kd [2] was 0.2 nM and the IC50 [3] was over 1000 nM. B2: no binding (tested: 2 µg/mL) (hFGFR4).
